Test results taken from the supplement of paper PMC12042874.
± gives the uncertainty stated by the source.

Experiment: amyloid nucleation score (Sup35N fusion, yeast selection) (log enrichment); library NNK3; higher = more nucleation; inactive = no reads after selection
How it was run: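 Three technical output replicates were used for random libraries. Psi-negative yeast expressing peptides of 20 random codons fused to Sup35N were induced with 100 μM copper sulfate for 24 hours and grown 7 days at 30°C on medium lacking adenine and uracil, and input and output plasmid inserts were Illumina-sequenced, excluding sequences with under 100 input reads. The nucleation score is the DiMSum log enrichment of output over input reads, centred on the mode score of non-aggregating sequences.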

| Substance | amyloid nucleation score |
| --- | --- |
| AVTSVSWLIIIDGALRSVKG | inactive |
| FVDWFLVGCRMVMLDRVLAS | inactive |
| YMLLQERLECSSLVDVSYVR | inactive |
| GLLFYYMILLGELLQR | inactive |
| HGFMI | inactive |
| AEMDRRATFTGDHGDGFAIV | inactive |
| PGSASYSLVRGQDYYLTIYC | inactive |
| KYWICVFFVMIRDPIAYWDD | inactive |
| TVEVNCCYLEGNVV | 1.03 ± 0.089 |
| VVSVLLDTI | inactive |
| IMILFI | 0.13 ± 0.49 |
| TLVCEDIVYRDLLITSFLYS | 0.589 ± 0.087 |
| EIRKQHCCHS | inactive |
| RFVTRCREDSVTLKHG | inactive |
| KTMDPILQFFERSTASLLLI | inactive |
| NLQNGDYITVWTEWEQEACR | inactive |
| SSVGMARAYL | -1.17 ± 1.9 |
| EQLISTSPLCVFIGFLVVLY | inactive |
| NCLFWSEVRFHVMCFCDWLL | inactive |
| WILFCKNGAVTNLLVWECLC | inactive |
| LRSCSSWRRLFKRIVQRHWV | inactive |
| LALWFRGPLLLLSSLI | inactive |
| YAGQDEFFMVTVYIKPNDLC | 1.85 ± 0.085 |
| YYSGCVLIRRILYLGRVGSP | inactive |

| Substance | amyloid nucleation score |
| --- | --- |
| LMSYV | inactive |
| RGICGNQLCRVMPLLNPHGC | inactive |
| LNYVIVDSLDKVVQITREYS | inactive |
| RHVNEGLVRGFNPSRTLKGK | inactive |
| SSNESGLSFGSEFHMLGWHG | 0.075 ± 0.35 |
| TMVTTNEIT | 0.092 ± 0.29 |
| RMSLSGRYRHFWSGRCVCRE | inactive |
| HMFRVVPSLIRI | inactive |
| NRVSFPRGSKFCTFL | inactive |
| KQGPWVDTVTVMKTFRMSIN | inactive |
| VFTSGLCEKS | 0.195 ± 0.72 |
| MTCTVRSEVYIHFNFVAIKF | 0.299 ± 0.33 |
| LNVTLIMNRRLFMGTFHLW | inactive |
| SLGSMAAVLSPSTAERPANL | inactive |
| CRVVDFG | -0.107 ± 0.49 |
| RHSQFTVVFCNRGRCAGLAA | inactive |
| FKWDGPESQFGPSLMRINGA | 1.16 ± 0.19 |
| WNCGSPPR | inactive |
| MVRSRLSASRRSICGPIISA | inactive |
| IVPAWLFGV | inactive |
| CNLYPCPYSKITDTAMLLGC | inactive |
| HLRKVCGGFM | inactive |
| SMCCCNILDLNRN | 3.11 ± 0.057 |
| CFLRKTSNASLIHPSRDTNN | inactive |

| Substance | amyloid nucleation score |
| --- | --- |
| RRWTTEVKQVHDYCG | inactive |
| IRSVKISSGYLLISYGDNNW | 0.687 ± 0.18 |
| LMNKKCNPGDKTLQIYIRRG | inactive |
| VGLSYVMINLGLPYLGRSAT | 1.83 ± 0.082 |
| YLTCVVKRTVH | inactive |
| ATFRMGRKVPWS | 1.01 ± 0.23 |
| VRHVITSSG | inactive |
| VKRVKMLAYPRHFLLMMSGK | inactive |
| TKRCKYCTKGNVQTHTWVAF | 0.466 ± 0.23 |
| STQGCLCRYPG | -0.333 ± 0.88 |
| GVSDVVFWSIGYHGRRISQS | inactive |
| HMFMRNLEMRVGHSFHRLRD | inactive |
| PLAFWTCCYCLTWNLRLSWQ | 1.6 ± 0.059 |
| KIFRIYICDCELYHTNGMWA | 1.56 ± 0.1 |
| WIKVDTPFEGFVRYAIDSGV | inactive |
| KMTFSWSLHHYCKP | 1.08 ± 0.19 |
| GNISGLNLVCEPIAVGSACE | -0.962 ± 1.9 |
| RNGVHS | 0.149 ± 0.81 |
| SYMGHV | 0.506 ± 0.43 |
| SSLLSEWNGGKSYNSVVDEV | inactive |
| AVMNVHFDSSVMEPIDLNRW | inactive |
| TYVVMGFRCETFRIHNGLRR | inactive |
| LSGACVHSAAGSALATQYAR | inactive |
| GYAISRFVFDTFRIFAVL | inactive |

| Substance | amyloid nucleation score |
| --- | --- |
| LKYNEKDPFECH | -0.318 ± 0.42 |
| EDLMLVQF | inactive |
| RPRTRNRRSSISWAKAL | inactive |
| RLQMGVLDLFYFD | inactive |
| YAETPRFIRFY | -0.137 ± 0.78 |
| IFYDNADTSKMNHISH | inactive |
| CLCNRDRLSSNFGGMTDKLH | inactive |
| SLHVSTAFVFDIVLSNYLPV | inactive |
| SRGCRTTYRQEWECIQCLKW | inactive |
| GNVILCFMLNYSMISGNDM | 0.956 ± 0.17 |
| LYVFCLAILPLDVLRFSLML | inactive |
| EPVFCMWLDMGLGPNDCRMA | inactive |
| GAGYL | inactive |
| VNFWMMRHAGCCKVHNKLSV | inactive |
| LFKMPCLILVWPDSMFATSL | inactive |
| MPDLITGGKPAIRWYYGSDS | inactive |
| IYNTGHSSRYLRTPVFAWSE | inactive |
| TAKPYRDDNNGYSAYIHPCS | inactive |
| VRGTGVVDRLGLGRWDRPEG | inactive |
| LTNRADE | inactive |
| APDVQYFYSLQD | inactive |
| SLILENLFVSFLTSKIILGF | inactive |
| YLVYNYFMRDHWGLSVYLSR | 0.641 ± 0.18 |
| CVYQLLGLVKMRNIRADGHA | inactive |

| Substance | amyloid nucleation score |
| --- | --- |
| RWIFLITILGVLNT | inactive |
| GYQLLNHLHAYTAGTNNLRL | inactive |
| ITSFFESHTVQVYAFYIRVF | inactive |
| IKGQSLSNSVFWSGGLDLRV | inactive |
| SANYNSNFR | inactive |
| WREAICLLICTIITVPWVNW | inactive |
| CRDNTGFCRGSAAVFNRCTG | inactive |
| KRDLSVIGKCTLNNVSNHCA | inactive |
| FNSILIVSLHLFSGFDSMR | 1.86 ± 0.093 |
| CSVTIGLIDTSPAIVSIPSD | inactive |
| HRYYCRLVFVEQTRDNIQPW | inactive |
| WNFNRVYHFLTIEMF | inactive |
| YCVLLRCNFFRSL | inactive |
| ANYFTPTNCSVRLRWISDPT | inactive |
| YNSFEFGVMSAL | inactive |
| TMCHGDDLRNHCYSETNSFR | inactive |
| KYRQIMNGFKFSRANSFVTV | inactive |
| FDGFGMDNIWKTFRNPHLMG | inactive |
| FASTVCEIPSFPWTKPRIMV | inactive |
| LLLSFYLNGILVIHML | inactive |
| MTGLLMSKTARFCRRNR | inactive |
